Experimental data published in paper PMC11886506.

What was measured:
Experiment in all cases: EMSA
[1] = molecular target: T1, MdEIL1 DNA-binding domain (His-MBP fusion) (UniProt D5L144 1-311)
T1 sequence: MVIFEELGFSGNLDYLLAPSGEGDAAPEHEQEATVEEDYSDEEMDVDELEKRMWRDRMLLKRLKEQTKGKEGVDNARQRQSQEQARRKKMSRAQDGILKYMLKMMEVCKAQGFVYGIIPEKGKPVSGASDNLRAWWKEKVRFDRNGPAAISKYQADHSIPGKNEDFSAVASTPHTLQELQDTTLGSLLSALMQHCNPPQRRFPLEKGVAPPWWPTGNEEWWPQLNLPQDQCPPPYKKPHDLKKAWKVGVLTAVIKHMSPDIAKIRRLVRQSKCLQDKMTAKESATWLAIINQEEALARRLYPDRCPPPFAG

[2] = molecular target: T2, MdEIL2 DNA-binding domain (His-MBP fusion) (UniProt D5L145 1-311)
T2 sequence: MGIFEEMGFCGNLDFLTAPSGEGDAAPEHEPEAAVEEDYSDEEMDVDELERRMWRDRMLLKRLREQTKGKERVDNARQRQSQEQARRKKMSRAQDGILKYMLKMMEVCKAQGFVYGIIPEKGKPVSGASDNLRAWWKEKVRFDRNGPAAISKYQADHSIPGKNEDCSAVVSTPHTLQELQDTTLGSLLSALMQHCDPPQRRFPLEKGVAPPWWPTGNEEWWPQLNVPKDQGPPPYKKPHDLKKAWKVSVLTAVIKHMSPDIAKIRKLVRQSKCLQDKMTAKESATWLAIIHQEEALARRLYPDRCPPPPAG

[3] = molecular target: T3, MdEIL3 DNA-binding domain (His-MBP fusion) (UniProt D5L146 1-311)
T3 sequence: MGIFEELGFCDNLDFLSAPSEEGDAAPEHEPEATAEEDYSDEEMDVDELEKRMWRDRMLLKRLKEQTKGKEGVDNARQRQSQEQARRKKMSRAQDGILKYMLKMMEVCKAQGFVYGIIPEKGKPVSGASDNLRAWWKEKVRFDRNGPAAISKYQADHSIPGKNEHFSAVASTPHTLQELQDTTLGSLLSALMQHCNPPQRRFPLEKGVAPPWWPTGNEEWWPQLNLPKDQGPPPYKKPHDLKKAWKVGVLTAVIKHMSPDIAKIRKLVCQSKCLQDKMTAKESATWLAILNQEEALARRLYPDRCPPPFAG

His-MBP = His-MBP (UniProt P0AEX9 27-396)

B1: proMdAFS1 WT probe (dsDNA)
DNA 1: CCCACCCCTCCGGAGATTCATTTGATATCCCA
DNA 2: TGGGATATCAAATGAATCTCCGGAGGGGTGGG
binding result [1]: binds
binding result [2]: binds
binding result [3]: binds
binding result (His-MBP): no binding

B2: proMdAFS1 MUT probe (dsDNA)
DNA 1: CCCACCCCTCCGGTAGCCTCTTTGATATCCCA
DNA 2: TGGGATATCAAAGAGGCTACCGGAGGGGTGGG
binding result [1]: no binding
binding result [2]: no binding
binding result [3]: no binding
